Publication PMC5427846 (Scientific Reports, 2017)

Biological target: T1, SecY without pBpa insertion (E. coli, UniProt P0AGA2 1-443)
T1 sequence (looked up): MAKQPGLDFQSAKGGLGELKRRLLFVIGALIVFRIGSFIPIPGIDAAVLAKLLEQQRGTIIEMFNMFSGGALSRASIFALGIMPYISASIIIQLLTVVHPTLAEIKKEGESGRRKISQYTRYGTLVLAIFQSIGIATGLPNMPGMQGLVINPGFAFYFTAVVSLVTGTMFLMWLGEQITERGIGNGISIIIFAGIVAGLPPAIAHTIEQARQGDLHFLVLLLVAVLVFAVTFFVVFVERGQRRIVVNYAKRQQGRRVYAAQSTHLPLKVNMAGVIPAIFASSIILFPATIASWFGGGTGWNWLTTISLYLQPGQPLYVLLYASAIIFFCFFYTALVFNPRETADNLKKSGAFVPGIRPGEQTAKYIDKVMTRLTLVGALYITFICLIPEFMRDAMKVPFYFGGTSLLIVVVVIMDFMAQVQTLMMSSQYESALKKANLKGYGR
Assay: cell-based or functional assay

B1: YidC (natural protein, UniProt P25714 1-548, looked up)
chain: MDSQRNLLVIALLFVSFMIWQAWEQDKNPQPQAQQTTQTTTTAAGSAADQGVPASGQGKLISVKTDVLDLTINTRGGDVEQALLPAYPKELNSTQPFQLLETSPQFIYQAQSGLTGRDGPDNPANGPRPLYNVEKDAYVLAEGQNELQVPMTYTDAAGNTFTKTFVLKRGDYAVNVNYNVQNAGEKPLEISSFGQLKQSITLPPHLDTGSSNFALHTFRGAAYSTPDEKYEKYKFDTIADNENLNISSKGGWVAMLQQYFATAWIPHNDGTNNFYTANLGNGIAAIGYKSQPVLVQPGQTGAMNSTLWVGPEIQDKMAAVAPHLDLTVDYGWLWFISQPLFKLLKWIHSFVGNWGFSIIIITFIVRGIMYPLTKAQYTSMAKMRMLQPKIQAMRERLGDDKQRISQEMMALYKAEKVNPLGGCFPLLIQMPIFLALYYMLMGSVELRQAPFALWIHDLSAQDPYYILPILMGVTMFFIQKMSPTTVTDPMQQKIMTFMPVIFTVFFLWFPSGLVLYYIVSNLVTIIQQQLIYRGLEKRGLHSREKKKS
anion to cation permeability ratio r (PCl/PK) of the FtsQ-RNC-YidC-SecYEG complex: 5.1
